From US20220291215A1 (published 2022)
Each block holds one binder with its values, some of them ahead of it.

How the values were obtained:
Experiment in all cases: multimer staining
[1] = target: T1, HSD17B12 peptide on HLA-DPA1*01:03 / HLA-DPB1*04:01 (human)
T1 peptide: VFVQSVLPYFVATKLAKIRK

[2] = target: T2, LY6K peptide on HLA-DRA*01:01 / HLA-DRB1*01:01 (human)
T2 peptide: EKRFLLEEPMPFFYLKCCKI

[3] = target: T3, CCND1 peptide on HLA-DPA1*01:03 / HLA-DPB1*04:01 (human)
T3 peptide: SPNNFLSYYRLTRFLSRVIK

[4] = target: T4, LGSN peptide on HLA-DPA1*01:03 / HLA-DPB1*04:01 (human)
T4 peptide: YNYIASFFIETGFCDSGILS

[5] = target: T5, MUC5AC peptide on HLA-DPA1*01:03 / HLA-DPB1*04:01 (human)
T5 peptide: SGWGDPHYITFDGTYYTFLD

[6] = target: T6, MAGE-A2 peptide on HLA-DPA1*01:03 / HLA-DPB1*04:01 (human)
T6 peptide: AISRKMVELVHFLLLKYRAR

B1: 05-HSD17B12225-244 (TCR)
alpha TRAV22*01 TRAJ18*01 CDR3: CAVAPYDRGSTLGRLYF
beta TRBV19*01 TRBJ2-5*01 CDR3: CASSTGQGLETQYF
binding result [1]: recognises

B2: DR1-08-LY6K99-118 (TCR)
alpha TRAV38-2/DV8*01 TRAJ52*01 CDR3: CAYRSFLNAGGTSYGKLTF
beta TRBV20-1*01 TRBJ1-6*01 CDR3: CAASRESKWSSYNSPLHF
binding result [2]: recognises

B3: 03-CCND1219-238 (TCR)
alpha TRAV2*01 TRAJ21*01 CDR3: CAVCTLYNFNKFYF
beta TRBV6-5*01 TRBJ2-1*01 CDR3: CASLTDNNEQFF
binding result [3]: recognises

Next, values leading:

binding result [4]: recognises
B4: 05-LGSN296-315 (TCR)
alpha TRAV9-2*03 TRAJ32*01 CDR3: CALSDLSYGGATNKLIF
beta TRBV27*01 TRBJ1-5*01 CDR3: CASSKGQGLGNQPQHF

binding result [5]: recognises
B5: 05-MUC5AC4922-4941 (TCR)
Valpha: QTVTQSQPEMSVQEAETVTLSCTYDTSESNYYLFWYKQPPSRQMILVIRQEAYKQQNATENRFSVNFQKAAKSFSLKISDSQLGDTAMYFCAFMKRAETSGSRLTFGEGTQLTVNP
beta TRBV6-2*01 TRBJ2-5*01 CDR3: CASSYWPTRETQYF

binding result [6]: recognises
B6: 06-MAGE-A2108-127 (TCR)
alpha TRAV19*01 TRAJ40*01 CDR3: CALSVGTYKYIF
beta TRBV7-9*01 TRBJ2-5*01 CDR3: CASSPGTGGRETQYF

binding result [6]: recognises
B7: 03-MAGE-A2108-127 (TCR)
alpha TRAV36/DV7*04 TRAJ40*01 CDR3: CAVEVNSGTYKYIF
beta TRBV2*01 TRBJ1-1*01 CDR3: CASRRDLAAFF
